According to article PMC10419456:

Molecular target: LC3 (microtubule-associated protein 1 light chain 3), endogenous (mouse (endogenous in mouse brain and cultured mouse neurons)) (UniProt Q91VR7)
Experiment: proximity ligation; cultured mouse cortical and cerebellar neurons (wild-type, L1_(687) and L1_(858–863) mutant), without or with L1 antibody 557 (50 µg/mL, 2 h) and without or with tat-LIRWT peptide; fixed, Duolink PLA with mouse L1 antibody C-2 and rabbit LC3 antibody; red spots per cell

full-length L1 (neural cell adhesion molecule L1) (from UniProt P11627 20-1260) (natural protein)
fold increase of L1/LC3 proximity ligation spots with L1 antibody 557 against unstimulated neurons: 4 fold
